Measured values from patent US20160120976A1.

Columns and labels:
CD20 (human) = CD20 (human) (UniProt P11836); test: cell-based or functional assay
CD74 (human) = CD74 (human) (UniProt P04233); test: cell-based or functional assay
Chain of CD74 (human) (P04233 whole entry): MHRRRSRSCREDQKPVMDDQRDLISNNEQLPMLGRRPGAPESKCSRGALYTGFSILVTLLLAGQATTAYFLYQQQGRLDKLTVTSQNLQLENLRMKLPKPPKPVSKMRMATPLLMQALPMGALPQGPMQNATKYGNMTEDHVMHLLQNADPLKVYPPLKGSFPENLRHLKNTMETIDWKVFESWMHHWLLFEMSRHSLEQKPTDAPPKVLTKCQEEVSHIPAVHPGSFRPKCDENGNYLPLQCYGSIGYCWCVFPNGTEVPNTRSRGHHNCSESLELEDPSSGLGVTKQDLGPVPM

Chain of CD20 (human) (P11836 whole entry): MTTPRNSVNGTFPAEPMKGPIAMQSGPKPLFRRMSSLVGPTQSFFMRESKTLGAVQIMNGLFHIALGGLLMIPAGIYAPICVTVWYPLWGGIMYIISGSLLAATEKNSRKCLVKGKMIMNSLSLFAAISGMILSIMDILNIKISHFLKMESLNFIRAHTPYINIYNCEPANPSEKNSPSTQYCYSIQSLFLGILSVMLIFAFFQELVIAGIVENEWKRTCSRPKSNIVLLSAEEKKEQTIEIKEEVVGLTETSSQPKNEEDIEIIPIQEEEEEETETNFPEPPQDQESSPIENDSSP

Row | EC50 (nM), MTS cell proliferation assay, Daudi (CD20 (human)) [nM] | EC50 (nM), MTS cell proliferation assay, Granta-519 (CD20 (human)) [nM] | EC50 (nM), MTS cell proliferation assay, JeKo-1 (CD20 (human)) [nM] | EC50 (nM), MTS cell proliferation assay, Mino (CD20 (human)) [nM] | EC50 (nM), MTS cell proliferation assay, Raji (CD20 (human)) [nM] | Percent inhibition (%) at 100 nM, MTS assay, Granta-519 (CD20 (human)) [%] | Percent inhibition (%) at 100 nM, MTS assay, JeKo-1 (CD20 (human)) [%] | Percent inhibition (%) at 100 nM, MTS assay, Raji (CD20 (human)) [%] | homotypic adhesion (%), JeKo-1, 2 h, 10 nM (CD20 (human)) [%] | homotypic adhesion (%), JeKo-1, 24 h, 10 nM (CD20 (human)) [%] | EC50 (nM), MTS cell proliferation assay, Daudi (CD74 (human)) [nM] | EC50 (nM), MTS cell proliferation assay, Granta-519 (CD74 (human)) [nM] | EC50 (nM), MTS cell proliferation assay, JeKo-1 (CD74 (human)) [nM] | EC50 (nM), MTS cell proliferation assay, Mino (CD74 (human)) [nM] | EC50 (nM), MTS cell proliferation assay, Raji (CD74 (human)) [nM] | EC50, MTS assay, in CLL lines WAC, MEC-1, ALL lines REH-1, MN60 and MM lines CAG, RPMI8226, KMS11, KMS12-BM, KMS12-PE (CD74 (human)) [nM] | Percent inhibition (%) at 100 nM, MTS assay, Granta-519 (CD74 (human)) [%] | Percent inhibition (%) at 100 nM, MTS assay, JeKo-1 (CD74 (human)) [%] | Percent inhibition (%) at 100 nM, MTS assay, Mino (CD74 (human)) [%] | Percent inhibition (%) at 100 nM, MTS assay, Raji (CD74 (human)) [%] | Substance | also measured
1 | 5.3 | 2 | 3 | 13.7 | 0.3 | 55 | 70 | 50 | 90 | > 95 | 5.3 | 2 | 3 | 13.7 | 0.3 | > 100 | 55 | 70 | 80 | 50 | 20-(74)-(74) bispecific hexavalent antibody (HexAb): CH3-AD2-IgG-veltuzumab with a pair of stabilized dimers of CH1-DDD2-Fab-milatuzumab (bispecific antibody) | Percent inhibition (%) at 100 nM, MTS assay, Mino (CD20 (human)): 80%; homotypic adhesion (%), JeKo-1, 2 h, 10 nM (CD74 (human)): 90%; homotypic adhesion (%), JeKo-1, 24 h, 10 nM (CD74 (human)): > 95%
2 | 1.2 | 0.6 | 2 | 1.2 | 0.3 | 65 | 90 | 50 | 90 | > 95 | 1.2 | 0.6 | 2 | 1.2 | 0.3 | > 100 | 65 | 90 | 100 | 50 | 74-(20)-(20) bispecific hexavalent antibody (HexAb): CH3-AD2-IgG-milatuzumab with a pair of stabilized dimers of CH1-DDD2-Fab-veltuzumab (bispecific antibody) | homotypic adhesion (%), JeKo-1, 2 h, 10 nM (CD74 (human)): 90%; homotypic adhesion (%), JeKo-1, 24 h, 10 nM (CD74 (human)): > 95%
